The source of these data is patent publication US8815803B2, “Method for increasing body height comprising systemic administration of CNP-53” (priority 2004, dated 2014).

Where “and” joins values, the source holds several entries; their conditions need not be identical. Equal values may be shown once. Entries after “also recorded” stand apart in the source; their conditions may differ.

What all share (format): in vivo
Data set [1] can be described thus: CNP expression in CNP transgenic mouse: CNP-22 EIA, blood plasma. How it is done: (§1) A CNP-22 EIA measuring kit (PHOENIX PHARMACEUTICALS INC.) was used for the determination of a CNP level.
(§2) Three each of 7-week old male and female CNP transgenic mice, as well as 3 each of male and female normal litter of mice, were euthanized by exsanguination from the postcava under ether anesthesia.
One mg of ethylenediaminetetraacetate-4Na (Junsei Chemical Co., Ltd., Japan) and 2 trypsin-inhibition units of aprotinin (Sigma) were added to the drawn blood and agitated to separate blood plasma, which was used as a sample for the determination of CNP-22 levels.

Data set [2] is described as follows: CNP expression in CNP transgenic mouse: CNP-22 EIA, liver. How it is done: as §1, §2
The liver was homogenized in a Waring blender (Physcotron), and after centrifugation (at 2,000 rpm for 5 minutes), the supernatant was used as a sample for the determination of CNP-22 levels.

The next data set concerns mice. Description: Growth curve of CNP transgenic mouse (naso-anal length). As for the experimental part:
The naso-anal lengths (in cm) of female and male CNP transgenic mice, as well as those of female and male normal littermates, were measured on time over a period of 2 to 9 weeks (FIG. 4).

Data set [3] concerns growth cartilage of femora. Description: Histological analysis of the growth cartilage of CNP transgenic mouse. Conditions: 9-week old female CNP transgenic mice, patellar surface femur. The text has this: For the purpose of analyzing the thickness of the growth cartilage histologically, 5 each of 9-week old female CNP transgenic mice and female normal litter of mice were euthanized by exsanguination from the postcava under ether anesthesia, and the thigh bone was fixed in 20% formalin for a week. After soaking in a 20% aqueous solution of EDTA-4Na (pH 7.4) (Junsei Chemical Co., Ltd., Japan) for decalcification, the patellar surface femur was subjected to a midline sagittal section and embedded in paraffin by conventional method to prepare a paraffin block. A 4 μm-thick section was further sectioned with a microtome to prepare paraffin sections, which were stained with hematoxylin and eosin. For the thickness of the growth cartilage, one microscopic field observed using an objective lens (×10) was incorporated into an image analysis software (IPAP, Sumika Technoservice, Japan), and each thickness of the resting layer, proliferating layer and hypertrophic layer was measured at 5 points in the microscopic field using the same software, and the calculated mean value thereof was taken as the thickness of each layer of the individual. The total of the three layers was regarded as the thickness of the growth cartilage of the individual. […]

Where [4] appears, read: 7-week old CNP transgenic mice, individual animal, CNP-22 EIA.
The mark [5] stands for this setting: CNP transgenic mouse vs wild type, means compared.

For the substance “CNP: C-type natriuretic peptide, a GC-B activator, overexpressed from murine CNP cDNA transgene in mice; measured with CNP-22 EIA kit”, the “CNP level, Plasma” value in data set [1] (setting [4]) was 11.1 ng/mL and 2.6 ng/mL and 10.3 ng/mL. In addition, the “CNP level, Plasma, mean ± SD” value in data set [1] (7-week old CNP transgenic mice, mean ± SD of No. 1-3) was 8.0 ± 4.7 ng/mL. The “CNP level in blood plasma, higher than the wild type” value in data set [1] (setting [5]) is reported as “about 24 fold”. In data set [2] (setting [4]), the “CNP level, Liver” value was 370.0 ng/g tissue and 206.7 ng/g tissue and 293.3 ng/g tissue. Further, in data set [2] (7-week old CNP transgenic mice, mean ± SD of No. 1-3, p < 0.01 vs wild type), the “CNP level, Liver, mean ± SD” value was determined as 290 ± 81.7 ng/g tissue. Further, the “CNP level in the liver, higher than the wild type” value in data set [2] (setting [5]) is on record as “about 10 fold”. Moreover, the “naso-anal length vs normal litter (WT)” value with mice (female CNP transgenic mice, at 2 weeks old and thereafter) is reported as “significantly greater”; in the data set with mice (male CNP transgenic mice, at 4 weeks old and thereafter) it was “significantly greater”. Further, the “naso-anal length vs normal littermates” value in the data set with mice (female and male CNP transgenic mice, over a period of 2 to 9 weeks) is on record as “greater than those of the normal littermates; also recorded: greater than those of the normal litter”. In data set [3], the “thickness of resting layer, proliferating layer, hypertrophic layer and total thickness of growth cartilage vs wild type” value is “greater with statistical significance; also recorded: significantly greater”.
